Reference: paper PMC4374719, “Herpesviral G Protein-Coupled Receptors Activate NFAT to Induce Tumor Formation via Inhibiting the SERCA Calcium ATPase” (PLoS Pathogens, 2015)

Target: T1, KSHV G protein-coupled receptor (kGPCR), stably expressed in HUVEC (Kaposi's sarcoma-associated herpesvirus …, UniProt Q98146 1-342)
T1 construct: GPCR homologue of Kaposi's sarcoma-associated herpesvirus (kGPCR); Probably HA-tagged like the other constructs, but no tag and no primary antibody is named for the proximity ligation assay; also called HUVEC/kGPCR
T1 sequence: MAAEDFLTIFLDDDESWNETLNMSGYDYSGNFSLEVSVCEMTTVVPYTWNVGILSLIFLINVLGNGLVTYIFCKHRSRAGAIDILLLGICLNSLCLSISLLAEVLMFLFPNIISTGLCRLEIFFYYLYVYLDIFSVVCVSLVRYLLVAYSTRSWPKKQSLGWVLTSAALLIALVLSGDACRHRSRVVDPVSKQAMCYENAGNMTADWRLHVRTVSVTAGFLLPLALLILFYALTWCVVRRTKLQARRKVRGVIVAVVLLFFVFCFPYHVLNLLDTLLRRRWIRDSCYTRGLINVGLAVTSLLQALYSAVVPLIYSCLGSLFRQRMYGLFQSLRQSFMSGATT
Experiment: proximity ligation; Duolink in situ kit on fixed HUVEC-Vector or HUVEC-kGPCR stable cells; spots counted in more than 100 cells of each group
Conditions: partners not purified

B1: sarco/endoplasmic reticulum calcium ATPase 2 (SERCA2), endogenous in HUVEC (enzyme, human (endogenous in HUVEC), UniProt P16615 1-1042, looked up)
chain: MENAHTKTVEEVLGHFGVNESTGLSLEQVKKLKERWGSNELPAEEGKTLLELVIEQFEDLLVRILLLAACISFVLAWFEEGEETITAFVEPFVILLILVANAIVGVWQERNAENAIEALKEYEPEMGKVYRQDRKSVQRIKAKDIVPGDIVEIAVGDKVPADIRLTSIKSTTLRVDQSILTGESVSVIKHTDPVPDPRAVNQDKKNMLFSGTNIAAGKAMGVVVATGVNTEIGKIRDEMVATEQERTPLQQKLDEFGEQLSKVISLICIAVWIINIGHFNDPVHGGSWIRGAIYYFKIAVALAVAAIPEGLPAVITTCLALGTRRMAKKNAIVRSLPSVETLGCTSVICSDKTGTLTTNQMSVCRMFILDRVEGDTCSLNEFTITGSTYAPIGEVHKDDKPVNCHQYDGLVELATICALCNDSALDYNEAKGVYEKVGEATETALTCLVEKMNVFDTELKGLSKIERANACNSVIKQLMKKEFTLEFSRDRKSMSVYCTPNKPSRTSMSKMFVKGAPEGVIDRCTHIRVGSTKVPMTSGVKQKIMSVIREWGSGSDTLRCLALATHDNPLRREEMHLEDSANFIKYETNLTFVGCVGMLDPPRIEVASSVKLCRQAGIRVIMITGDNKGTAVAICRRIGIFGQDEDVTSKAFTGREFDELNPSAQRDACLNARCFARVEPSHKSKIVEFLQSFDEITAMTGDGVNDAPALKKAEIGIAMGSGTAVAKTASEMVLADDNFSTIVAAVEEGRAIYNNMKQFIRYLISSNVGEVVCIFLTAALGFPEALIPVQLLWVNLVTDGLPATALGFNPPDLDIMNKPPRNPKEPLISGWLFFRYLAIGCYVGAATVGAAAWWFIAADGGPRVSFYQLSHFLQCKEDNPDFEGVDCAIFESPYPMTMALSVLVTIEMCNALNSLSENQSLLRMPPWENIWLVGSICLSMSLHFLILYVEPLPLIFQITPLNVTQWLMVLKISLPVILMDETLKFVARNYLEPGKECVQPATKSCSFSACTDGISWPFVLLIMPLVIWVYSTDTNFSDMFWS
notes: SERCA2 of human umbilical vein endothelial cells; source: endogenous, HUVEC, in fixed cells
With B1 the “fold of proximity ligation fluorescent spots over control HUVEC cells” value was greater than 10 fold.
